{"source": "patent US20030113828A1", "about": "“Compositions and methods for modulating Syk function” (priority 2001, published 2003)", "key": {"[1]": {"biological_target": "T1, integrin β3 cytoplasmic tail (Homo sapiens, UniProt P05106)", "T1 construct": "made in house", "T1 sequence (P05106 742-788 limits assumed)": "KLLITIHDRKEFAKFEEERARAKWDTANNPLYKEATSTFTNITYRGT", "test": "Affinity chromatography/direct binding of kinase fragments to integrin tail", "details": "recombinant fragments, direct binding assay", "protocol": "(§1) Following incubation, beads were washed and bound protein was analyzed by immunoblotting.\n(§2) For direct binding assays, model peptides (1 mg) were dissolved in 1 ml buffer containing 20 mM Tris (pH 7.9), 500 mM NaCl, and 6 M urea. To this, 50 ul packed His-Bind® Resin (Novagen, Madison, Wis.) was added and the mixture was rotated for 1 hour at room temperature. Immobilized peptides were washed 5× in above buffer without urea, and resuspended in 500 μl buffer containing 20 mM PIPES pH 6.8, 50 mM NaCl, 3 mM MgCl2, 150 mM sucrose, 50 mM NaF, 40 mM Na4P2O7*10H2O (buffer A) supplemented with 0.1% TritonX-100 and 3 mM MgCl2. Purified GST-fusion proteins were added to 0.5 ml buffer A supplemented with 0.1% TritonX-100 and 3 mM MgCl2. Five μl of total packed resin loaded with various integrin cytoplasmic domain model proteins was added to the GST-fusion protein. The mixture was incubated for 40 minutes at room temperature with continuous rotation. The beads were then washed five times in buffer A with 0.1% TritonX-100 and 3 mM MgCl2. Bound proteins were eluted by boiling in reducing sample buffer, fractionated by SDS PAGE, and immuno-blotted."}, "[2]": {"biological_target": "T2, Syk binding to the β3 tail model proteins (Homo sapiens, UniProt P43405)", "T2 construct": "made in house; host or cells: bacteria (pGEX vector, IPTG induction)", "test": "β3 peptide competition in direct binding assay", "details": "peptide 1×10^−4 M, Syk 5×10^−9 M", "protocol": "Phosphorylation of the β3 integrin cytoplasmic domain occurs as a consequence of integrin engagement (Law et al. (1996) J Biol Chem 271:10811-10815). To determine if phosphorylation of the β3 cytoplasmic domain could affect Syk binding, competition assays were performed using tyrosine phosphorylated or non-phosphorylated peptides in the context of the last 23 amino acids of the β3 cytoplasmic domain. Peptides were used at a concentration 1×10^−4 M, and Syk was used at a concentration of 5×10^−9 M. The non-phosphorylated peptide competed for integrin β3 tail binding to Syk. In three experiments, there was a 52±3.4% decrease in Syk binding to the β3 tail model proteins in the presence of non-phosphorylated β3-23 peptide as compared to the phosphorylated peptide (β3-23P). […] Furthermore, phosphorylation of β3(Y747,759) reduces its capacity to compete for Syk binding to the unphosphorylated β3 tail.\nas §2, with “The beads were then washed five times in buffer A with 0.1% TritonX-100 and 3 mM MgCl2. Bound proteins were eluted by boiling in reducing sample buffer, fractionated by SDS PAGE, and immuno-blotted.” left out\nFor peptide competition assays, peptides were pre-incubated with Syk(6-370) for one hour before direct binding assays were performed. Peptides were used at a concentration of 1×10^−4 M, and Syk(6-370) was used at a concentration of 2×10^−9 M. Bound Syk was detected as described above. […]"}, "Syk [3]": {"biological_target": "T3, Syk (Homo sapiens, UniProt P43405)", "test": "Affinity chromatography/direct binding of integrin tail model proteins to Syk", "design": "made in house; host or cells: bacteria (pGEX vector, IPTG induction)", "protocol": "(§3) Model protein mimics of integrin cytoplasmic domains αIIb, β1A, and β3 were prepared in accordance with procedures described by Pfaff et al. (1998) J Biol Chem 273:6104-6109). The β2 integrin cytoplasmic domain model protein was developed by PCR amplification of β2 cDNA using 5′-[…] (SEQ ID NO:7) and 3′-[…] (SEQ ID NO:8) primers. This primer set introduced a 5′ HindIII restriction site into the N-terminal region of the β2 cytoplasmic domain, resulting in the mutation, A725L. The 3′ primer contained a BamHI restriction site immediately downstream of dual stop codons. The PCR product was cloned into pCR2.1 as described in the TA Cloning® system (Invitrogen, Carlsbad, Calif.). After sequencing, pCR2.1-β2cyt was digested with BamHI and HindIII, and subcloned into a modified bacterial expression plasmid pET15bm (lacking the HindIII restriction site). All model proteins were verified by sequence analysis, expressed, HPLC purified and verified by electrospray ionization mass spectroscopy as described by Pfaff et al. ((1998) J Biol Chem 273:6104-6109).\nas §1, §2"}, "Zap-70 [4]": {"biological_target": "T4, Zap-70 (Homo sapiens, UniProt P43403)", "T4 construct": "A cDNA encoding residues 1-337 of human Zap-70 was cloned into pGEX-2T; made in house; host or cells: bacteria (pGEX-2T, IPTG induction)", "T4 sequence (P43403 1-337)": "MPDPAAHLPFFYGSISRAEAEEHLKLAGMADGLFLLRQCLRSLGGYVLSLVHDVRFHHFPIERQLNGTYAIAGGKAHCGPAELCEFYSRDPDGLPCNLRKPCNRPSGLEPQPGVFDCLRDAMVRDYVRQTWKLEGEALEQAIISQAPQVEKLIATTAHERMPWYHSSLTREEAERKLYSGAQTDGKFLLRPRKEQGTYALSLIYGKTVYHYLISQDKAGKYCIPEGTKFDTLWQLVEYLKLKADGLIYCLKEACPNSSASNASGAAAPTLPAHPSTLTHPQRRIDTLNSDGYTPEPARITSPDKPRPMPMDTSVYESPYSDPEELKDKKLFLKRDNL", "test": "Affinity chromatography/direct binding of integrin tail model proteins to Zap-70", "details": "recombinant fragment, direct binding", "protocol": "(§4) A cDNA encoding residues 1-337 of human Zap-70 was cloned into pGEX-2T (Amersham Pharmacia Biotech).\nas §3, §1\nas §2, with “The beads were then washed five times in buffer A with 0.1% TritonX-100 and 3 mM MgCl2. Bound proteins were eluted by boiling in reducing sample buffer, fractionated by SDS PAGE, and immuno-blotted.” left out"}, "Zap-70 [5]": {"system": "Zap-70", "test": "Affinity chromatography/direct binding of integrin tail model proteins to Zap-70", "design": "species or system human", "details": "Zap-70 from cell lysates", "protocol": "as §4, §3, §1\nas §2, with “The beads were then washed five times in buffer A with 0.1% TritonX-100 and 3 mM MgCl2. Bound proteins were eluted by boiling in reducing sample buffer, fractionated by SDS PAGE, and immuno-blotted.” left out"}, "[6]": {"biological_target": "T5, binding of Syk(6-370) to the β3 tail (Homo sapiens, UniProt P43405)", "T5 construct": "made in house; host or cells: bacteria (pGEX vector, IPTG induction)", "test": "pITAM peptide competition in direct binding assay", "details": "soluble pITAM peptide 40 μM, 8000-fold molar excess", "protocol": "To verify that the Syk-β3 interaction is pITAM-independent mechanism, the effect of 8000-fold molar excess of PITAM peptides on binding of Syk(6-370) to the β3 tail was examined. […] Similar data were obtained in a quantitative enzyme-linked immunosorbent assay. The FcεRIγ pITAM peptides were functional, as they activated Syk kinase (EC50 1-2 μM) in vitro (Shiue et al.(1995) J Biol Chem 270:10498-10502). Thus, Syk recognition of β3 involves a unique specificity, distinct from Syk's interaction with pITAMs.\nas §1"}, "Syk [7]": {"biological_target": "T3, Syk", "test": "Syk kinase activation in vitro", "type": "biochemical"}, "Syk(6-370)": {"biological_target": "Syk(6-370) (Homo sapiens, UniProt P43405)", "details": "Ottinger et al. 1998, cited from earlier work"}, "[8]": {"details": "recombinant fragment, direct binding"}}, "note": "Like-named read-outs stand apart in the source and are kept apart here. Square brackets hold non-standard residues; d marks the D form. Ends that are not written are not given here. Peptide text beside a SMILES is read from it. pY = N[C@@H](Cc1ccc(OP(=O)(O)O)cc1)C(=O)O"}
{"molecule": "tandem SH2 domains of SHP-2: tandem SH2 domains of SHP-2", "values": [{"measurement": "binding to the β3 tail", "setting": "[1]", "value": "did not bind"}]}
{"molecule": "Zap-70(1-162): N-terminal SH2 domain of Zap-70 with its intact IA domain", "values": [{"measurement": "binding to the β3 tail", "setting": "[1]", "value": "bound β3 to a similar extent as the tandem SH2 domains"}]}
{"molecule": "β3-23P: tyrosine phosphorylated peptide of the last 23 amino acids of the β3 cytoplasmic domain (DTANNPLYKEATSTFTNITYRGT; also: tyrosine phosphorylated, site not given here) [reference compound]", "values": [{"measurement": "competition for integrin β3 tail binding to Syk", "setting": "[2]", "value": "did not detectably compete"}]}
{"molecule": "Syk(163-270): Syk fragment containing only the C-terminal SH2 domain", "values": [{"measurement": "binding to the β3 tail", "setting": "[1]", "value": "failed to bind"}]}
{"molecule": "β3(759X): β3 tail with deletion of the last 4 C-terminal residues (KLLITIHDRKEFAKFEEERARAKWDTANNPLYKEATSTFTNIT; not fully specified)", "values": [{"measurement": "binding of Syk to integrin tail model protein", "setting": "Syk [3]; [8]", "value": "abolished"}]}
{"molecule": "αIIb tail: αIIb integrin cytoplasmic tail model protein (KVGFFKRNRPPLEEDDEEGE; not fully specified)", "values": [{"measurement": "binding of Zap-70 to integrin tail model protein", "setting": "Zap-70 [4]", "value": "No binding was detected"}, {"measurement": "binding of Zap-70 to integrin tail model protein", "setting": "Zap-70 [5]", "value": "no detectable binding"}, {"measurement": "binding of Syk to integrin tail model protein", "setting": "Syk [3]; Syk from cell lysates", "value": "no detectable binding"}, {"measurement": "binding of Syk to integrin tail model protein", "setting": "Syk [3]; [8]", "value": "No binding was detected"}]}
{"molecule": "β3-23 peptide: non-phosphorylated peptide of the last 23 amino acids of the β3 cytoplasmic domain (DTANNPLYKEATSTFTNITYRGT)", "values": [{"measurement": "competition for integrin β3 tail binding to Syk", "setting": "[2]", "value": "competed"}, {"measurement": "decrease in Syk binding to the β3 tail model proteins", "setting": "[2]; three experiments, compared to the phosphorylated peptide (β3-23P)", "value": "52±3.4", "unit": "%"}]}
{"molecule": "NQLY(PO3)NELNLGRREEY(PO3)DVLV (SEQ ID NO:2) (NQL[pY]NELNLGRREE[pY]DVLV) [dually-phosphorylated TCRξ chain ITAM peptide]", "values": [{"measurement": "competition with the β3 integrin cytoplasmic tail for binding to Syk(6-370)", "setting": "[6]", "value": "failed to compete"}]}
{"molecule": "Syk(R195A): C-terminal SH2 domain mutant of Syk deficient in binding to pITAMs", "values": [{"measurement": "binding to the β3 tail", "setting": "[1]", "value": "bound"}]}
{"molecule": "β3752X: β3 tail with removal of 11 C-terminal residues Thr752-Thr762 (KLLITIHDRKEFAKFEEERARAKWDTANNPLYKEAT; not fully specified)", "values": [{"measurement": "binding of Syk to integrin tail model protein", "setting": "Syk [3]; [8]", "value": "abolished"}]}
{"molecule": "β3: recombinant model protein mimic of dimerized integrin β3 cytoplasmic tail (KLLITIHDRKEFAKFEEERARAKWDTANNPLYKEATSTFTNITYRGT; also: dimerised via Fc or GST (left off))", "values": [{"measurement": "binding of Zap-70 to integrin tail model protein", "setting": "Zap-70 [5]", "value": "bound"}, {"measurement": "binding of Syk to integrin tail model protein", "setting": "Syk [3]; Syk from cell lysates", "value": "bound"}]}
{"molecule": "CC(C)C[C@H](NC(=O)CNC(=O)[C@@H](NC(=O)[C@H](Cc1ccc(OP(=O)(O)O)cc1)NC(=O)[C@@H](NC(=O)CNC(=O)[C@@H](N)CC(=O)O)C(C)C)[C@@H](C)O)C(=O)N[C@@H](CO)C(=O)N[C@H](C(=O)N[C@@H](CCCNC(=N)N)C(=O)N[C@@H](CC(N)=O)C(=O)N[C@@H](CCC(N)=O)C(=O)N[C@@H](CCC(=O)O)C(=O)N[C@H](C(=O)N[C@@H](Cc1ccc(OP(=O)(O)O)cc1)C(=O)N[C@@H](CCC(=O)O)C(=O)N[C@H](C(=O)N[C@@H](CC(C)C)C(=O)N[C@@H](CCCCN)C(=O)N[C@H](C(=O)N[C@@H](CS)C(=O)N[C@@H](CCCNC(=N)N)C(=O)O)[C@@H](C)O)[C@@H](C)O)[C@@H](C)O)[C@@H](C)O", "note": "[FcεRIγ ITAM peptide, DGVY(PO3)TGLSTRNQETY(PO3)ETLKTCR (SEQ ID NO:1)] (H-DGV[pY]TGLSTRNQET[pY]ETLKTCR-OH)", "values": [{"measurement": "EC50", "setting": "Syk [7]", "value": "1000 to 2000", "unit": "nM"}, {"measurement": "Kd", "setting": "Syk(6-370); read-out: affinity of Syk for the dually phosphorylated FcεRIγ-ITAM", "value": 2.6, "unit": "nM"}, {"measurement": "Kd", "setting": "Syk(6-370); reported, read-out: Kd for the interaction between Syk(6-370) and the FcεRIγ pITAM peptide", "value": 2.6, "unit": "nM"}]}
